What was measured:
Conditions in all cases: chain copies: 2; label: tethered by stalled RNA polymerase
[1] = target: T1, MS2 coat protein, dlFG mutant (Escherichia phage MS2, UniProt P03612, del68-81insG); test: 4 mM Mg2+; FMN 200 uM; RNA-MaP array; 100 mM Tris-HCl pH 7.5, 80 mM KCl, 4 mM MgCl2, 0.1 mg/mL BSA, 1 mM DTT, 0.01 mg/mL yeast tRNA, 0.01% Tween-20; protein 1.5 nM to 3 uM; 37 C (Table S3)
[2] = target: T1, MS2 coat protein, dlFG mutant; test: 4 mM Mg2+; no ligand; RNA-MaP array; 100 mM Tris-HCl pH 7.5, 80 mM KCl, 4 mM MgCl2, 0.1 mg/mL BSA, 1 mM DTT, 0.01 mg/mL yeast tRNA, 0.01% Tween-20; protein 1.5 nM to 3 uM; 37 C (Table S3)
[3] = target: T1, MS2 coat protein, dlFG mutant; test: 4 mM Mg2+; miR-208a RNA 100 nM (AU…UUGU); RNA-MaP array; 100 mM Tris-HCl pH 7.5, 80 mM KCl, 4 mM MgCl2, 0.1 mg/mL BSA, 1 mM DTT, 0.01 mg/mL yeast tRNA, 0.01% Tween-20; protein 1.5 nM to 3 uM; 37 C (Table S3)
[4] = target: T1, MS2 coat protein, dlFG mutant; test: 4 mM Mg2+; theophylline 2 mM; RNA-MaP array; 100 mM Tris-HCl pH 7.5, 80 mM KCl, 4 mM MgCl2, 0.1 mg/mL BSA, 1 mM DTT, 0.01 mg/mL yeast tRNA, 0.01% Tween-20; protein 1.5 nM to 3 uM; 37 C (Table S3)
[5] = target: T1, MS2 coat protein, dlFG mutant; test: 4 mM Mg2+; L-tryptophan 2.4 mM; RNA-MaP array; 100 mM Tris-HCl pH 7.5, 80 mM KCl, 4 mM MgCl2, 0.1 mg/mL BSA, 1 mM DTT, 0.01 mg/mL yeast tRNA, 0.01% Tween-20; protein 1.5 nM to 3 uM; 37 C (Table S3)

B1: Eterna 5811984 (Exclusion 6) (ssRNA)
RNA: CUUAGUAUCUAGGAUAUCUAGUACAUAGUAUCUAGAGAAGGAGAUACAUGAGGAUCACCCAUGUUCUGUGUUCU
[1]
  Kd: 65.6 nM

B2: Eterna 7699730 (Exclusion - Theophylline A) (ssRNA)
RNA: AGAAACUUGUAUGUCGGCCCUGCGCGCGAUACCAGCCAAAUGGAUGGCCCUUGGCAGCGCAGCGAGUGAUGUUCGCCCGGCUGAC
[2]
  Kd: > 3000 nM

B3: Eterna 10216 (Sensor for hsa-mir-208a) (ssRNA)
RNA: CUCAAAACAAGUUGCAGUGUUCGUCUUUAACAUGAGGAUCACCCAUGUAAUAACCCAGUGGAAGCGCUCGGGCCACC
[3]
  Kd: 21.1 nM

B4: Eterna 7639274 (Exclusion - Theophylline B) (ssRNA)
RNA: UUAUUUAUAAUGGAUACCAGUGCUGUGGCCCGGCAUCCUGACAUGAGGAUCACCCAUGUGUACCCUUGGCAGCUGUUAUGGGUUU
[4]
  Kd: 24.2 nM

B5: Eterna 7730854 (Same State - Tryptophan A) (ssRNA)
RNA: UACAUGAGGAUCACCCAUGUCCCAUGUGAACGAGGACCGGUACGGCCGCCACUCGACCGAGGCGGCACAUGAGGAUCACCCGCAU
[5]
  Kd: 1580 nM

B6: Eterna 1142 (Exclusion - Theophylline A) (ssRNA)
RNA: UGCAUCAGUGCCUUUGAUCUAUUCCUGGAUACCAGAUCCUACUUGAUCCCUUGGCAGCCAUACGGGAGUGAUGUUCCAUGUAUCC
[2]
  Kd: > 3000 nM

B7: Eterna 13246 (Sensor for hsa-mir-208a) (ssRNA)
RNA: UGGAUCUAGGCUUGCCUGGGUCCAUGUUGACAUGAGGAUCACCCAUGUGUAUUUUAUAAGCUUUUUGUUUGUCAACA
[3]
  Kd: 13.4 nM

B8: Eterna 7627711 (Same State - Tryptophan B) (ssRNA)
RNA: GGUUACUCUACGGCCGCCACUGAUUAAUUAUAAUCCUGUACAUAAACAUGAGGAUCACCCAUGUACAGGACCGGGUAGUGUAACC
[5]
  Kd: 29.1 nM

B9: Eterna 11880 (Sensor v3, turn-off variant 2) (ssRNA)
RNA: AGAAAUGCCCAUGGCCGCAAGCUUUUCGCUUGUCUUACCACAUGAGGAUCACCCAUGUGACAUGGGCUCCUUAUAAU
[3]
  Kd: 10.7 nM

B10: Eterna 6082084 (Exclusion 3) (ssRNA)
RNA: AACACGUGAGGAUAUACAUGAGGAUCACCCAUGUUGGUACAAUCCUGUCCGACUAUCCGUAGAAGGCAUUGACU
[1]
  Kd: 34.1 nM
